Test results: the Immune Epitope Database (IEDB)

Legend:
HLA-A*30:02 = assay: IEDB peptide-MHC binding, purified MHC/competitive/radioactivity; filed as Kd, often an IC50 or EC50 that approximates it; ≥ and ≤ were set here for values at or beyond the usual limits of such assays
HLA-A*29:02 = assay: as above
HLA-A*01:01 = assay: as above
HLA-A*26:01 [1] = assay: as above
HLA-A*24:02 [2] = assay: as above
HLA-A*23:01 = assay: as above
HLA-B*15:01 = assay: as above
HLA-B*07:02 = assay: as above
HLA-B*08:01 = assay: as above; settings: source organism: Dengue virus 4 Philippines/H241/1956
HLA-A*24:02 [3] = assay: IEDB peptide-MHC binding, purified MHC/competitive/fluorescence; ≥ and ≤ were set here for values at or beyond the usual limits of such assays
HLA-A*02:01 = assay: as above
HLA-B*44:03 = assay: IEDB peptide-MHC binding, purified MHC/competitive/radioactivity; filed as Kd, often an IC50 or EC50 that approximates it; ≥ and ≤ were set here for values at or beyond the usual limits of such assays
HLA-B*44:02 = assay: as above
HLA-A*26:01 [4] = assay: IEDB peptide-MHC binding, purified MHC/direct/fluorescence; filed as Kd, often an IC50 or EC50 that approximates it; ≥ and ≤ were set here for values at or beyond the usual limits of such assays; settings: source organism: Mycobacterium tuberculosis variant bovis
[5] = source organism: SARS coronavirus Tor2
[6] = source organism: Dengue virus 1 Brazil/97-11/1997
[7] = source organism: Dengue virus 4 Philippines/H241/1956
[8] = source organism: Dengue virus 3 Martinique/1243/1999
[9] = source organism: Vaccinia virus WR
[10] = source organism: Zaire ebolavirus
[11] = source organism: Dengue virus 2 Jamaica/1409/1983
[12] = source organism: Mammarenavirus machupoense
[13] = source organism: Mammarenavirus guanaritoense
[14] = source organism: Mammarenavirus lassaense

For EMVMCGGSLY, which Kd (HLA-A*30:02; [5]) is on record?
Its Kd is 38.1 nM.

And the Kd (HLA-A*29:02; [5])?
Its Kd is 13.9 nM.

What about the Kd (HLA-A*01:01; [5]) of the same sequence?
The Kd was 468 nM.

And the Kd (HLA-A*26:01 [1]; [5])?
The Kd was 19.9 nM.

And the Kd (HLA-A*24:02 [2]; [5])?
The Kd was at least 70300 nM.

And the Kd (HLA-A*23:01; [5])?
The Kd was at least 70000 nM.

How did the Kd (HLA-A*30:02; [5]) turn out when LYEQVVMDY was run?
The Kd was 173 nM.

What about the Kd (HLA-A*29:02; [5]) of the same sequence?
Its Kd is 12.2 nM.

What about the Kd (HLA-A*01:01; [5]) of the same sequence?
The Kd was 15100 nM.

What about the Kd (HLA-A*26:01 [1]; [5]) of the same sequence?
Its Kd is at least 22600 nM.

And the Kd (HLA-A*24:02 [2]; [5])?
Its Kd is at least 40500 nM.

And the Kd (HLA-A*23:01; [5])?
Its Kd is at least 58200 nM.

LWTTLLSLTF was tested. Which Kd (HLA-A*24:02 [2]; [6]) did it give?
The Kd was 14.3 nM.

What about the Kd (HLA-A*23:01; [6]) of the same sequence?
Its Kd is 20.6 nM.

Which results are given for EYADVFHLY?
Kd (HLA-A*30:02; [5]): 10.8 nM; Kd (HLA-A*29:02; [5]): 48.8 nM; Kd (HLA-A*01:01; [5]): ≥ 26200 nM; Kd (HLA-A*26:01 [1]; [5]): 27.7 nM; Kd (HLA-A*24:02 [2]; [5]): 784 nM; Kd (HLA-A*23:01; [5]): 176 nM

Which Kd (HLA-A*30:02; [6]) does the source give for LSKSEFNTY here?
The Kd was 11.1 nM.

What about the Kd (HLA-B*15:01; [6]) of the same sequence?
Its Kd is 7.88 nM.

And the Kd (HLA-A*01:01; [6])?
Its Kd is 2740 nM.

For KPKGKVVDL, which Kd (HLA-B*07:02; [7]) is on record?
The Kd was 43.4 nM.

And the Kd (HLA-B*08:01)?
Its Kd is 124 nM.

With RPTPTGTVMD as the sequence, how does the Kd (HLA-B*07:02; [8]) read?
Its Kd is 41.5 nM.

Which Kd (HLA-B*15:01; [7]) does the source give for YQVKTETTIL here?
The Kd was 43.1 nM.

With TLGYCMIRW as the sequence, how does the IC50 (HLA-A*24:02 [3]; [9]) read?
Its IC50 is at least 105000 nM.

For WQQVPFCSH, which Kd (HLA-B*15:01; [6]) is on record?
The Kd was 102 nM.

For LESGAVKYL, which IC50 (HLA-A*02:01; [10]) is on record?
Its IC50 is at least 222000 nM.

What about the IC50 (HLA-A*24:02 [3]; [10]) of the same sequence?
Its IC50 is at least 128000 nM.

With YGANYFLQI as the sequence, how does the Kd (HLA-B*15:01; [9]) read?
Its Kd is 1760 nM.

How did the Kd (HLA-A*30:02; [5]) turn out when DEEPMELDY was run?
Its Kd is at least 42000 nM.

What about the Kd (HLA-A*29:02; [5]) of the same sequence?
Its Kd is 1130 nM.

What about the Kd (HLA-A*01:01; [5]) of the same sequence?
Its Kd is 2000 nM.

What about the Kd (HLA-A*26:01 [1]; [5]) of the same sequence?
The Kd was at least 73600 nM.

And the Kd (HLA-A*24:02 [2]; [5])?
Its Kd is at least 77600 nM.

What about the Kd (HLA-A*23:01; [5]) of the same sequence?
The Kd was at least 59000 nM.

How did the Kd (HLA-B*07:02; [6]) turn out when RPMFAVGLL was run?
Its Kd is 5.06 nM.

With SFEEMYRHI as the sequence, how does the IC50 (HLA-A*24:02 [3]; [10]) read?
Its IC50 is 6110 nM.

How did the Kd (HLA-B*44:03; [6]) turn out when NEVHTWTEQ was run?
Its Kd is 6680 nM.

Which results are given for QKEGVFHTMW?
Kd (HLA-B*44:02; [8]): 181 nM; Kd (HLA-B*44:03; [8]): 411 nM

Which Kd (HLA-B*15:01; [9]) does the source give for VLLDYGLHG here?
Its Kd is at least 27500 nM.

What does the source list for WYAQIQPHW?
Kd (HLA-A*24:02 [2]; [11]): 24.3 nM; Kd (HLA-A*23:01; [11]): 62.1 nM

How did the Kd (HLA-A*30:02; [12]) turn out when RCWLIRNGSY was run?
Its Kd is 16.1 nM.

And the Kd (HLA-A*29:02; [12])?
Its Kd is 4810 nM.

What about the Kd (HLA-A*01:01; [12]) of the same sequence?
Its Kd is at least 37700 nM.

And the Kd (HLA-A*26:01 [1]; [12])?
The Kd was at least 69700 nM.

What about the Kd (HLA-A*24:02 [2]; [12]) of the same sequence?
Its Kd is at least 70300 nM.

And the Kd (HLA-A*23:01; [12])?
The Kd was at least 34700 nM.

With KQFKQDSKY as the sequence, how does the Kd (HLA-B*15:01; source organism: Lymphocytic choriomeningitis virus (strain Armstrong) (clone 53b)) read?
The Kd was 13 nM.

Which IC50 (HLA-A*24:02 [3]; [10]) does the source give for TTIRYQATG here?
Its IC50 is 58300 nM.

With IQNSGGTSIF as the sequence, how does the Kd (HLA-B*15:01; [8]) read?
The Kd was 3.01 nM.

With DTVWEVQGY as the sequence, how does the Kd (HLA-A*30:02; [5]) read?
Its Kd is 1320 nM.

And the Kd (HLA-A*29:02; [5])?
Its Kd is 4250 nM.

And the Kd (HLA-A*01:01; [5])?
Its Kd is 8020 nM.

And the Kd (HLA-A*26:01 [1]; [5])?
Its Kd is 1.64 nM.

And the Kd (HLA-A*24:02 [2]; [5])?
The Kd was at least 77600 nM.

And the Kd (HLA-A*23:01; [5])?
Its Kd is at least 77800 nM.

For KVINLSELL, which Kd (HLA-A*29:02; [13]) is on record?
Its Kd is 11900 nM.

What about the Kd (HLA-A*24:02 [2]; [13]) of the same sequence?
Its Kd is 17600 nM.

And the Kd (HLA-A*23:01; [13])?
Its Kd is 426 nM.

What does the source list for IRWLGGILP?
IC50 (HLA-A*02:01; [9]): ≥ 156000 nM; IC50 (HLA-A*24:02 [3]; [9]): 48100 nM

How did the Kd (HLA-B*15:01; [9]) turn out when LLSRYDEHF was run?
The Kd was 54 nM.

DENPYKTWAY was tested. Which Kd (HLA-B*44:03; [8]) did it give?
The Kd was 8.64 nM.

What does the source list for IEEVMRSRW?
Kd (HLA-B*44:02; [6]): 178 nM; Kd (HLA-B*44:03; [6]): 36.6 nM

For FGVDGEAGF, which Kd (HLA-A*26:01 [4]) is on record?
The Kd was at least 20000 nM.

Which results are given for YEEFCNAVY?
Kd (HLA-A*30:02; [14]): 762 nM; Kd (HLA-A*29:02; [14]): 426 nM; Kd (HLA-A*01:01; [14]): 5370 nM; Kd (HLA-A*26:01 [1]; [14]): ≥ 77900 nM; Kd (HLA-A*24:02 [2]; [14]): ≥ 77500 nM; Kd (HLA-A*23:01; [14]): 10100 nM
